Assay results from patent US20230235040A1 (ALMIRALL S A, published 2023).

T1: hu-IL-36α (human IL-36α, N-terminally truncated active form K6-F158) (human, UniProt Q9UHA7 6-158)
T1 sequence: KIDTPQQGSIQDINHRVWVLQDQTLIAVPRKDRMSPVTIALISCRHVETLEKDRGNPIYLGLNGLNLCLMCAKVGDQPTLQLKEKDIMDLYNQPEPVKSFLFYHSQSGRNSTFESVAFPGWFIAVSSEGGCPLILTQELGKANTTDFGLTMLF

T2: hu-IL-36γ (human IL-36γ, N-terminally truncated active form S18-D169) (human, UniProt Q9NZH8 18-169)
T2 sequence: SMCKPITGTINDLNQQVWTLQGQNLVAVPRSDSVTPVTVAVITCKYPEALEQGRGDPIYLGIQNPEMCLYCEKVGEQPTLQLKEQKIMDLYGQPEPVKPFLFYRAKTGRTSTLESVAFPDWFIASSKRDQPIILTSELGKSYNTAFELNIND

T3: cy-IL-36γ (cynomolgus monkey IL-36γ, S18-K168) (cynomolgus monkey, UniProt Q9NZH8 18-167 (human entry))
T3 construct: Purification tag cleaved off
T3 chain: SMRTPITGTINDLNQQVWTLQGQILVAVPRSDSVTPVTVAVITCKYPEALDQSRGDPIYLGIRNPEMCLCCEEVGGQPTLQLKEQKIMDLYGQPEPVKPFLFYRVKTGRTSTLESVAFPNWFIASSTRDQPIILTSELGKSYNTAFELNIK

T4: cy-IL-36α (cynomolgus monkey IL-36α, K6-F158) (cynomolgus monkey, UniProt Q9UHA7 14-158 (human entry))
T4 construct: Purification tag cleaved off
T4 chain: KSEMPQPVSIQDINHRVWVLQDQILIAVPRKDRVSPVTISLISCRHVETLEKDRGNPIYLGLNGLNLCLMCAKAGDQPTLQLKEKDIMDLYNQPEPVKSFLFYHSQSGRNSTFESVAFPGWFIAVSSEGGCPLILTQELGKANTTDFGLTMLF

T5: hu-IL-36β (human IL-36β, N-terminally truncated active form R5-E157) (human)
T5 construct: Purification tag cleaved off; Biotinylated where captured; also called hu-IL-36b
T5 chain: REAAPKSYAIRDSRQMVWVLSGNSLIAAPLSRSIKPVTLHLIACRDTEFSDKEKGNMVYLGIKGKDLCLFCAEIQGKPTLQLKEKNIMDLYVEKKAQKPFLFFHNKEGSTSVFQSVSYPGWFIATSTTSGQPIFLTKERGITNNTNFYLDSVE


Assays:
[1] = molecular target: T1, hu-IL-36α (human IL-36α, N-terminally …); assay: cell-based or functional assay
[2] = molecular target: T2, hu-IL-36γ (human IL-36γ, N-terminally …); assay: cell-based or functional assay
[3] = molecular target: T1, hu-IL-36α (human IL-36α, N-terminally …); assay: ELISA, yeast Fab supernatant, anti-Fab-HRP
[4] = molecular target: T2, hu-IL-36γ (human IL-36γ, N-terminally …); assay: ELISA, yeast Fab supernatant, anti-Fab-HRP
[5] = molecular target: T3, cy-IL-36γ (cynomolgus monkey IL-36γ, …); assay: ELISA on coated cy- and hu-IL-36γ, yeast Fab supernatant; ratio of OD450
Method: (§1) Cell supernatants from yeast clones of interest were tested for binding to human IL-36 by ELISA as described above. To compare the binding of these supernatants to human and cynomolgus monkey IL-36, IL-36 proteins were coated at 2.5 μg/mL on 96-well Nunc MaxiSorp plates (Thermo Fisher) and the plates blocked with 5% goat serum in PBS. Yeast supernatants were diluted 1:1 with PBST containing 1% w/v BSA and added to the ELISA plates for 1-1.5 hours with agitation. Bound Fab was detected by incubating the plates with F(ab′)2-HRP (Jackson ImmunoResearch). The ELISAs were developed for 3-10 minutes by addition of 50 μL/well of tetramethylbenzidine (TMB) microwell peroxidase substrate (Scytek Laboratories, Inc., Logan, Utah, USA) and enzymatic color development was stopped by acidification with 50 µL/well of 2 N H₂SO₄ (Sigma-Aldrich Corporation, St. Louis, Mo., USA). The optical density of the samples at a wavelength of 450 nm (OD450) was analyzed with a SpectraMax i3X plate reader (Molecular Devices LLC, San Jose, Calif., USA). To estimate the relative affinity of each clone for cynomolgus monkey IL-36 and human IL-36 in this assay, a ratio of OD450 (OD450_cyIL-36/OD450_huIL-36) was calculated for each clone and IL-36 cytokine.

[6] = molecular target: T4, cy-IL-36α (cynomolgus monkey IL-36α, …); assay: ELISA on coated cy- and hu-IL-36α, yeast Fab supernatant; ratio of OD450
Method: as §1

[7] = molecular target: T5, hu-IL-36β (human IL-36β, N-terminally …); assay: SPR (Biacore), purified Fab, biotinylated hu-IL-36β captured
[8] = molecular target: T5, hu-IL-36β (human IL-36β, N-terminally …); assay: cell-based or functional assay
[9] = molecular target: T5, hu-IL-36β (human IL-36β, N-terminally …); assay: phage competition ELISA: Fab on phage, soluble hu-IL-36β titrated against coated hu-IL-36β
Method: Selected phages with top binding signal were purified to perform phage competition ELISA. The optimal phage concentration was incubated with serially-diluted human IL-36β in ELISA buffer (0.5% BSA and 0.05% TWEEN©20 in PBS) in NUNC F plate for two hours. 80 μl of the mixture was transferred to human IL-36β coated wells for 15 min to capture unbound phage. The plate was washed with wash buffer (0.05% TWEEN©20 in PBS), and HRP-conjugated anti-M13 antibody (Sino biological, Cat #11973-MM05-H-50) was added in ELISA buffer for 30 min. The plate was incubated at room temperature for one hour with agitation, washed six times with wash buffer and developed for 15 minutes by addition of 100 μL/well of 1 Step Turbo™ B substrate (ThermoFisher, Cat #34022). The enzymatic reaction was stopped using 50 μL/well of 2N H₂SO₄. Plates were analyzed using a Perkin Elmer plate reader (Envision 2103 multilabel reader) at 450 nm. The absorbance at 450 nm was plotted as a function of antigen concentration in solution to determine phage IC₅₀. […] Real affinities for purified Fab molecules for the phage variants were also measured using Biacore (method described in detail in section E below).

Row | % Inhibition, HEK-Blue IL-36R SEAP reporter assay [1] [%] | % Inhibition, HEK-Blue IL-36R SEAP reporter assay [2] [%] | ELISA OD450 [3] [OD450] | ELISA OD450 [4] [OD450] | ELISA OD450cyIL-36/OD450hu-IL-36 [5] [ratio] | ELISA OD450cyIL-36/OD450hu-IL-36 [6] [ratio] | Kd [7] [nM] | IC50, IL-36-stimulated IL-8 secretion by HaCat cells [8] [nM] | IC50 [9] [nM] | Binder
1 | 70 | 31 | 0.94 | 2.43 | 1.3 | 0.6 | – | – | – | mAb1.0 Fab (yeast clone culture supernatant) (Fab, V domains shown, Human Fab secreted by the yeast clone, not purified) VH: QVQLVESGGGVVQPGRSLRLSCAASGFSFSAYAMHWVRQAPGKGLEWVAVISYDGTNEYYADSVKGRFTISRDNSKNTLYLQMNSLRAEDTAVYYCARGIRIFTSYFDSWGQGTLVTVSS VL: QSVLTQPPSVSGAPGQRVTISCTGSSSNIGAHYDVHWYQQLPGTAPKLLIYSNNNRPSGVPDRFSGSKSGTSASLAITGLQAEDEADYYCQSYDYSLRGYVFGGGTKLTVL
2 | 91 | 57 | 2.16 | 2.3 | 1.2 | 0.5 | – | – | – | mAb4.0 Fab (yeast clone culture supernatant) (Fab, V domains shown, Human Fab secreted by the yeast clone, not purified) VH: QLQLQESGPGLVKPSETLSLTCTVSGGSIGSRSYYWGWIRQPPGKGLEWIGSIHYSGTTYYNPSLKSRVTISVDTSKNQFSLKLSSVTAADTAVYYCARVAPSYPRVFDYWGQGTLVTVSS VL: QSVLTQPPSVSGAPGQRVTISCTGSSSNIGAGYDVHWYQQLPGTAPKLLIYGNRNRPSGVPDRFSGSKSGTSASLAITGLQAEDEADYYCQSYDYSLRVYVFGGGTKLTVL
3 | 40 | 64 | 1.63 | 2.11 | 1 | 0.5 | – | – | – | mAb3.0 Fab (yeast clone culture supernatant) (Fab, V domains shown, Human Fab secreted by the yeast clone, not purified) VH: QLQLQESGPGLVKPSETLSLTCTVSGGSISSTSYYWGWIRQPPGKGLEWIGSIHYSGNTYYNPSLKSRVTISVDTSKNQFSLKLSSVTAADTAVYYCARVHYGGYIPRRFDHWGQGTLVTVSS VL: QSVLTQPPSVSGAPGQRVTISCTGSSSNIGAGYDVHWYQQLPGTAPKLLIYGNTNRPSGVPDRFSGSKSGTSASLAITGLQAEDEADYYCQSYDYSLRGYVFGGGTKLTVL
4 | 75 | 75 | 2.05 | 2.08 | 1 | 0.5 | – | – | – | mAb5.0 Fab (yeast clone culture supernatant) (Fab, V domains shown, Human Fab secreted by the yeast clone, not purified) VH: EVQLLESGGGLVQPGGSLRLSCAASGFTFSTYAMSWVRQAPGKGLEWVSGISGGSGYTYYADSVKGRFTISRDNSKNTLYLQMNSLRAEDTAVYYCARVVTYRDPPASFDYWGQGTLVTVSS VL: QSVLTQPPSVSGAPGQRVTISCTGSSSNIGAHYDVHWYQQLPGTAPKLLIYGNDNRPSGVPDRFSGSKSGTSASLAITGLQAEDEADYYCQSYDYSLKAYVFGGGTKLTVL
5 | – | – | – | – | – | – | 2.55 | 2.22 | 1.04 | mAb6_2.2 Fab (Fab, V domains shown, Purified Fab (Biacore, HaCat assay)) VH: ELQLQESGPGLVKPSETLSLTCTVSGGSITSSNAYWGWIRQPPGKGLEWIGSIDYTGSTAYNPSLKSRVTISVDTSKNQFSLKLSSVTAADTAVYYCAHGKYYETYLGFDVWGQGTLVTVSS VL: ESVLTQPPSVSGAPGQRVTISCTGSSSNIGAHYDVHWYQQLPGTAPKLLIYGNDNRPSGVPDRFSGSKSGTSASLAITGLQAEDEADYYCQSYDYSLSGYVFGGGTKLTVL
6 | – | – | – | – | – | – | 3.5 | 1.64 | 0.77 | mAb6_2.1 Fab (Fab, V domains shown, Purified Fab (Biacore, HaCat assay)) VH: ELQLQESGPGLVKPSETLSLTCTVSGGSITSTNYYWGWIRQPPGKGLEWIGNIDYTGSTYYNASLKSRVTISVDTSKNQFSLKLSSVTAADTAVYYCATGKYYETYLGFDVWGQGTLVTVSS VL: ESVLTQPPSVSGAPGQRVTISCTGSSSNIGAHYDVHWYQQLPGTAPKLLIYGNDNRPSGVPDRFSGSKSGTSASLAITGLQAEDEADYYCQSYDYSLSGYVFGGGTKLTVL
7 | – | – | – | – | – | – | 1.05 | 0.13 | – | mAb6_2.4 Fab (Fab, V domains shown, Purified Fab) VH: ELQLQESGPGLVKPSETLSLTCTVSGGSITASNYYWGWIRQPPGKGLEWIGSIDYTGSTYYNPSLKSRVTISVDTSKNQFSLKLSSVTAADTAVYYCATGKYYETYLGFDVWGQGTLVTVSS VL: ESVLTQPPSVSGAPGQRVTISCTGSSSNIGAHYDVHWYQQLPGTAPKLLIYGNDNRPSGVPDRFSGSKSGTSASLAITGLQAEDEADYYCQSYDYSLSGYVFGGGTKLTVL
8 | – | – | – | – | – | – | 1.62 | 1.31 | 0.49 | mAb6_2.3 Fab (Fab, V domains shown, Purified Fab (Biacore, HaCat assay)) VH: ELQLQESGPGLVKPSETLSLTCTVSGGSITASNYYWGWIRQPPGKGLEWIGSIDYTGSTYYNTSLKSRVTISVDTSKNQFSLKLSSVTAADTAVYYCATGKYYETYLGFDVWGQGTLVTVSS VL: ESVLTQPPSVSGAPGQRVTISCTGSSSNIGAHYDVHWYQQLPGTAPKLLIYGNDNRPSGVPDRFSGSKSGTSASLAITGLQAEDEADYYCQSYDYSLSGYVFGGGTKLTVL
9 | 91 | 89 | 2.53 | 2.5 | 1.2 | 0.7 | – | – | – | mAb2.0 Fab (yeast clone culture supernatant) (Fab, V domains shown, Human Fab secreted by the yeast clone, not purified) VH: QLQLQESGPGLVKPSETLSLTCTVSGGSISTSSYYWGWIRQPPGKGLEWIGSIYYTGNTYYNPSLKSRVTISVDTSKNQFSLKLSSVTAADTAVYYCARVRYGVGVPRYFDPWGQGTLVTVSS VL: QSVLTQPPSVSGAPGQRVTISCTGSSSNIGAHYDVHWYQQLPGTAPKLLIYGNDNRPSGVPDRFSGSKSGTSASLAITGLQAEDEADYYCQSYDYSLSGYVFGGGTKLTVL
